Each block holds one molecule with its values, some of them ahead of it.
T1: laminin γ1 short arm fragment (γ1LN-LEa1-4) (Mus musculus, UniProt P02468 34-492)
T1 chain: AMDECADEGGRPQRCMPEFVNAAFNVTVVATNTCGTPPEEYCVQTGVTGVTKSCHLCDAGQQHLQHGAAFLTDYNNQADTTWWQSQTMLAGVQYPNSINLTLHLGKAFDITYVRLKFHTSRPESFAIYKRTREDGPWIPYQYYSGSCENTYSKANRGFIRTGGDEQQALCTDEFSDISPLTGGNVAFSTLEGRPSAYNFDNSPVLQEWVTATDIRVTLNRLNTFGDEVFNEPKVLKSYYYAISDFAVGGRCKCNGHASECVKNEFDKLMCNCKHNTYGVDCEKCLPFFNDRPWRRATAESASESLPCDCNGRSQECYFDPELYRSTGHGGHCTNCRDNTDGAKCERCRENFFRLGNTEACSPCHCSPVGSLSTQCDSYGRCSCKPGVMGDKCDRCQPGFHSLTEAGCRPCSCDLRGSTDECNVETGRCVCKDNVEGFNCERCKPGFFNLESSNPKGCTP

B1: full-length Net4 (Net4-FL) (natural protein, Mus musculus, UniProt Q9JI33 20-628, looked up)
chain: LNGVAGANSRCEKACNPRMGNLALGRKLRADTMCGQNATELFCFYSENADLTCRQPKCDKCNAAHSHLAHPPSAMADSSFRFPRTWWQSAEDVHREKIQLDLEAEFYFTHLIMVFKSPRPAAMVLDRSQDFGKTWKPYKYFATNCSATFGLEDDVVKKGAICTSRYSNPFPCTGGEVIFRALSPPYDIENPYSAKVQEQLKITNLRVRLLKRQSCPCQINDLNAKPHHFMHYAVYDFIVKGSCFCNGHADQCLPVEGFRPIKAPGAFHVVHGRCMCKHNTAGSHCQHCAPLYNDRPWEAADGRTGAPNECRTCKCNGHADTCHFDVNVWEASGNRSGGVCNNCQHNTEGQHCQRCKPGFYRDLRRPFSAPDACKACSCHPVGSAILPFSSVTFCDPSNGDCPCKPGVAGPHCDRCMVGYWGFGDYGCRPCDCAGSCDPLTGDCISSNADVDWYHEVPAFHSMHNKSEPSWEWEDEQGFSALRHSGKCECKEQVLGNPKAFCGMKYSYVLKIKILSAHDKGSHAEVNVKIKKVLKSTKLKILRGKRTLYPESWTNRGCTCPILNPGLEYLVAGHEDVRTGKLIVNMKSFVQHWKPALGRRVMHILKRDCV
notes: also called netrin-4; wild-type Net4; source: HEK293, stably transfected, purified (streptactin-sepharose, thrombin digestion, SEC); not shown: double Strep II, N-terminal, cleaved
B2: Net4-ΔC^ΔKAPGA (domain or fragment, Mus musculus, UniProt Q9JI33 20-462, looked up)
chain: LNGVAGANSRCEKACNPRMGNLALGRKLRADTMCGQNATELFCFYSENADLTCRQPKCDKCNAAHSHLAHPPSAMADSSFRFPRTWWQSAEDVHREKIQLDLEAEFYFTHLIMVFKSPRPAAMVLDRSQDFGKTWKPYKYFATNCSATFGLEDDVVKKGAICTSRYSNPFPCTGGEVIFRALSPPYDIENPYSAKVQEQLKITNLRVRLLKRQSCPCQINDLNAKPHHFMHYAVYDFIVKGSCFCNGHADQCLPVEGFRPIFHVVHGRCMCKHNTAGSHCQHCAPLYNDRPWEAADGRTGAPNECRTCKCNGHADTCHFDVNVWEASGNRSGGVCNNCQHNTEGQHCQRCKPGFYRDLRRPFSAPDACKACSCHPVGSAILPFSSVTFCDPSNGDCPCKPGVAGPHCDRCMVGYWGFGDYGCRPCDCAGSCDPLTGDC
notes: the limits of the deletion are printed for the combined mutant; probably made like its parent m1; also called Net4 mutant in which the specific loop b (KAPGA) within LE1 was deleted
B3: N-terminal laminin fragment α1LN-LEa1-4 (domain or fragment, Homo sapiens, UniProt P25391 18-453, looked up)
chain: RQRGLFPAILNLASNAHISTNATCGEKGPEMFCKLVEHVPGRPVRNPQCRICDGNSANPRERHPISHAIDGTNNWWQSPSIQNGREYHWVTITLDLRQVFQVAYVIIKAANAPRPGNWILERSLDGTTFSPWQYYAVSDSECLSRYNITPRRGPPTYRADDEVICTSYYSRLVPLEHGEIHTSLINGRPSADDLSPKLLEFTSARYIRLRLQRIRTLNADLMTLSHREPKELDPIVTRRYYYSIKDISVGGMCICYGHASSCPWDETTKKLQCQCEHNTCGESCNRCCPGYHQQPWRPGTVSSGNTCEACNCHNKAKDCYYDESVAKQKKSLNTAGQFRGGGVCINCLQNTMGINCETCIDGYYRPHKVSPYEDEPCRPCNCDPVGSLSSVCIKDDLHSDLHNGKQPGQCPCKEGYTGEKCDRCQLGYKDYPTCVS
notes: also called laminin α1; source: HEK293, stably transfected, purified (streptactin-sepharose, thrombin digestion, SEC); not shown: double Strep II, N-terminal, cleaved
B4: laminin γ1 short arm fragment (γ1LN-LEa1-4) (domain or fragment, Mus musculus, UniProt P02468 34-492, looked up)
chain: T1 chain
notes: also called Lmγ1; N-terminal laminin γ1 fragment; source: HEK293, stably transfected, purified (streptactin-sepharose, thrombin digestion, SEC); not shown: double Strep II, N-terminal, cleaved
B5: Net4 lacking the C-terminal domain (Net4-ΔC) (domain or fragment, Mus musculus, UniProt Q9JI33 20-462, looked up)
chain: LNGVAGANSRCEKACNPRMGNLALGRKLRADTMCGQNATELFCFYSENADLTCRQPKCDKCNAAHSHLAHPPSAMADSSFRFPRTWWQSAEDVHREKIQLDLEAEFYFTHLIMVFKSPRPAAMVLDRSQDFGKTWKPYKYFATNCSATFGLEDDVVKKGAICTSRYSNPFPCTGGEVIFRALSPPYDIENPYSAKVQEQLKITNLRVRLLKRQSCPCQINDLNAKPHHFMHYAVYDFIVKGSCFCNGHADQCLPVEGFRPIKAPGAFHVVHGRCMCKHNTAGSHCQHCAPLYNDRPWEAADGRTGAPNECRTCKCNGHADTCHFDVNVWEASGNRSGGVCNNCQHNTEGQHCQRCKPGFYRDLRRPFSAPDACKACSCHPVGSAILPFSSVTFCDPSNGDCPCKPGVAGPHCDRCMVGYWGFGDYGCRPCDCAGSCDPLTGDC
notes: lacks domain C); Two alternative constructs were cloned: one with an N-terminal His8 tag, one with an N-terminal double Strep II tag (not both on one chain); the tag was removed by thrombin; also called netrin-4; wild-type Net4; source: HEK293, stably transfected, purified (streptactin-sepharose or nickel TALON beads, thrombin digestion, SEC); not shown: double Strep II, N-terminal, cleaved; …

Key:
[1] = biological target: laminin γ1 short arm fragment (γ1LN-LEa1-4) (Mus musculus) (UniProt P02468); assay: not stated; binding assay of Supplementary Fig. 6c; method not given
[2] = biological target: laminin γ1 (UniProt P02468); conditions: cited from earlier work
[3] = biological target: T1, laminin γ1 short arm fragment …; assay: MST
[4] = biological target: B4; assay: cross-linking; increasing crosslinker concentration; Supplementary Fig. 5a; conditions: both partners purified
[5] = biological target: the molecule itself; assay: as above
[6] = biological target: B4; assay: not stated; binding assays of Supplementary Fig. 6a,b; methods not shown (the author contributions name SPR measurements); conditions: both partners purified
[7] = biological target: B4; assay: SEC; analytical size-exclusion chromatography of single proteins and of mixtures; conditions: both partners purified
[8] = biological target: T2, N-terminal laminin fragment β1LN-LEa1-4 (Homo sapiens, UniProt P07942 31-509); assay: as above; conditions: both partners purified
T2 construct: also called laminin β1; Lmβ1; source: HEK293, stably transfected, purified (streptactin-sepharose, thrombin digestion, SEC); not shown: double Strep II, N-terminal, cleaved
T2 sequence (P07942 31-509): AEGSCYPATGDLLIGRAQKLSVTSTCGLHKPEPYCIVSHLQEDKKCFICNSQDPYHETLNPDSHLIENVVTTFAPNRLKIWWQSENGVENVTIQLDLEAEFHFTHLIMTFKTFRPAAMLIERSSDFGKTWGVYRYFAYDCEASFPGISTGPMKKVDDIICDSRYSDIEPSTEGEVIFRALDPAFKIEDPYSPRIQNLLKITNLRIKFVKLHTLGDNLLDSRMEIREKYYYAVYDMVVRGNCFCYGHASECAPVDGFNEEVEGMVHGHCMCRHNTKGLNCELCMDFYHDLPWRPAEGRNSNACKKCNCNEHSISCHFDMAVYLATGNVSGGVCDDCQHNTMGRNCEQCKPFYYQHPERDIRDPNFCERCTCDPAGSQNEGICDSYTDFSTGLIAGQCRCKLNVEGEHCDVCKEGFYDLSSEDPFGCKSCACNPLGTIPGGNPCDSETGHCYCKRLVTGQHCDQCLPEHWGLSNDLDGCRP

[9] = biological target: B1; assay: MST; 2 nM labelled γ1LN-LEa1-4; Net4 0.08-1,000 nM, Net4 mutants 0.45-4,000 nM; 50 mM Tris/HCl pH 7.4, 150 mM NaCl, 2 mM CaCl2, 3% BSA; NanoTemper Monolith NT.115; conditions: both partners purified
[10] = biological target: B4; assay: rotary-shadowing electron microscopy; images of the Net4-ΔC-γ1LN-LEa1-4 complex; conditions: both partners purified
[11] = biological target: B4; assay: MST; 2 nM labelled γ1LN-LEa1-4; Net4 0.08-1,000 nM, Net4 mutants 0.45-4,000 nM; 50 mM Tris/HCl pH 7.4, 150 mM NaCl, 2 mM CaCl2, 3% BSA; NanoTemper Monolith NT.115; conditions: both partners purified

Kd [1]: 66 nM
Molecule: Net4-ΔC^E195A,R199A (from UniProt Q9JI33 20-462) (domain or fragment)

Molecule: laminin β1 (from UniProt P02469)
Kd [2]: 5000 nM

Molecule: B1
Kd [3]: 2.26 nM
stoichiometry N [4]: 1
stoichiometry N [5]: 2

Molecule: B2
Kd [6]: ~50 nM

Molecule: B3
binding result [7]: binds

Molecule: B4
binding result [8]: binds
Kd [9]: ~2 nM

Molecule: B5
Kd [3]: 2.29 nM
stoichiometry N [10]: 1
Kd [11]: ~2 nM

Reference: article PMC5141367, “Structural decoding of netrin-4 reveals a regulatory function towards mature basement membranes” (Nature Communications, 2016)
